Data on four molecules can be found in patent US20060154864, “Transcript factor and an Akt substrate related to transcriptional action of insulin and applications of same” (Emory University, published 2006).

Series [1] relates to IRE-BP1 C-terminal fragment (3.4-kb cDNA) (Rattus norvegicus). Put plainly: cell_activity.
For series [2], the target named is NFkB p50 (UniProt P19838 P19838:1-433). Kind of series: EMSA; supershifted by p50 antibody. The conditions noted are these: tags: E. coli-expressed; chain copies: 2; label: 32P. Background: A gel shift assay detects complexes by their altered migration in electrophoresis.
Chain of NFkB p50 (P19838 1-433, one chain of several): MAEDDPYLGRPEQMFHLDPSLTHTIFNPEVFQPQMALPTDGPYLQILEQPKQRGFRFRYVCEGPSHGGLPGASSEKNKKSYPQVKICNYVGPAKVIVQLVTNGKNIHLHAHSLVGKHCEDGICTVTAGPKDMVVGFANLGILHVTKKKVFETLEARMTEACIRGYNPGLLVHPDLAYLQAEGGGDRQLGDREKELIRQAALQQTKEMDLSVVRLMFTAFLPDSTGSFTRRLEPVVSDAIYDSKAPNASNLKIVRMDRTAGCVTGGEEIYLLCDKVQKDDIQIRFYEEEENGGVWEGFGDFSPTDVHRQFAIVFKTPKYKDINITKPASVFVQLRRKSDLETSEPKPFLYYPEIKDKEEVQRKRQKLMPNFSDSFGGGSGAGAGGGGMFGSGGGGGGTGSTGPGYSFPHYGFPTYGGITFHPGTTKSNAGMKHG

In series [1] (COS-7 luciferase, 2-fold on control vector), “AATTCAAGGGTATCCAGGAAAGTCTCCTTCAAG (double strand) [IGFBP-3 IRE]” had an activity of 14 fold.

In series [1] (COS-7 luciferase, basal, 3.5-fold with insulin), “GCCTCATTATTCCTGCCCACCAAT (double strand) [IGF-1 IRE]” returned an activity of 4.7 fold.

In series [1] (with insulin, vs 24.7% vector alone, no basal effect, SEQ 50 inferred), “GTTTGTTTTGCTAGT (double strand) [IGFBP-1 IRE]” displayed an activity of 63.2 % decrease.

B1: IGFBP-3 IRE (dsDNA)
DNA 1: AATTCAAGGGTATCCAGGAAAGTCTCCTTCAAG
DNA 2: CTTGAAGGAGACTTTCCTGGATACCCTTGAATT
B1: the binding result in series [2] is “binds”.
